Each block holds one binder with its values, some of them ahead of it.
Tests used:
[1] = target: T1, collagen type I (UniProt P02454 152-1207; P02466 86-1125); experiment: ELISA; 96-well plate coated with 100 μg/ml collagen type I or 2% BSA at 4°C overnight, blocked with 2% BSA in PBS-T; SIRPαFc or CBD–SIRPαFc in five concentrations, 37°C, 2 h; detected with HRP anti-human IgG1 Fc antibody; KD by non-linear regression (one-site specific binding); settings: both partners purified
T1 construct: collagen type I, alpha 1 chain; collagen type I, alpha 2 chain; also called collagen I; source: bought: Corning

[2] = target: T2, human CD47 (human, UniProt Q08722 19-323); experiment: SPR; Biacore T200; SIRPαFc or CBD–SIRPαFc caught on a CM5 chip activated by EDC-NHS; human CD47 in six concentrations flowed over; settings: both partners purified
T2 construct: CD47, human, in solution as the analyte of Biacore
T2 sequence (Q08722 19-323): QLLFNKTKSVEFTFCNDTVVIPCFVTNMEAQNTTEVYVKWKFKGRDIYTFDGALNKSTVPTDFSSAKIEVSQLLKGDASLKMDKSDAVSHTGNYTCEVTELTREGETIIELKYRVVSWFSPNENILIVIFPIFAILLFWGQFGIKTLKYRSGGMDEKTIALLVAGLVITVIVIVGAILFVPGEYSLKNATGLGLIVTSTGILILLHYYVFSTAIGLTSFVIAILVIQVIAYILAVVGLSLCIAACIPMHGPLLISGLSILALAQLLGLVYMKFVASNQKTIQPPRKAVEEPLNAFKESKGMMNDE

T1 sequence (P02454 152-1207, chain 1 of 2): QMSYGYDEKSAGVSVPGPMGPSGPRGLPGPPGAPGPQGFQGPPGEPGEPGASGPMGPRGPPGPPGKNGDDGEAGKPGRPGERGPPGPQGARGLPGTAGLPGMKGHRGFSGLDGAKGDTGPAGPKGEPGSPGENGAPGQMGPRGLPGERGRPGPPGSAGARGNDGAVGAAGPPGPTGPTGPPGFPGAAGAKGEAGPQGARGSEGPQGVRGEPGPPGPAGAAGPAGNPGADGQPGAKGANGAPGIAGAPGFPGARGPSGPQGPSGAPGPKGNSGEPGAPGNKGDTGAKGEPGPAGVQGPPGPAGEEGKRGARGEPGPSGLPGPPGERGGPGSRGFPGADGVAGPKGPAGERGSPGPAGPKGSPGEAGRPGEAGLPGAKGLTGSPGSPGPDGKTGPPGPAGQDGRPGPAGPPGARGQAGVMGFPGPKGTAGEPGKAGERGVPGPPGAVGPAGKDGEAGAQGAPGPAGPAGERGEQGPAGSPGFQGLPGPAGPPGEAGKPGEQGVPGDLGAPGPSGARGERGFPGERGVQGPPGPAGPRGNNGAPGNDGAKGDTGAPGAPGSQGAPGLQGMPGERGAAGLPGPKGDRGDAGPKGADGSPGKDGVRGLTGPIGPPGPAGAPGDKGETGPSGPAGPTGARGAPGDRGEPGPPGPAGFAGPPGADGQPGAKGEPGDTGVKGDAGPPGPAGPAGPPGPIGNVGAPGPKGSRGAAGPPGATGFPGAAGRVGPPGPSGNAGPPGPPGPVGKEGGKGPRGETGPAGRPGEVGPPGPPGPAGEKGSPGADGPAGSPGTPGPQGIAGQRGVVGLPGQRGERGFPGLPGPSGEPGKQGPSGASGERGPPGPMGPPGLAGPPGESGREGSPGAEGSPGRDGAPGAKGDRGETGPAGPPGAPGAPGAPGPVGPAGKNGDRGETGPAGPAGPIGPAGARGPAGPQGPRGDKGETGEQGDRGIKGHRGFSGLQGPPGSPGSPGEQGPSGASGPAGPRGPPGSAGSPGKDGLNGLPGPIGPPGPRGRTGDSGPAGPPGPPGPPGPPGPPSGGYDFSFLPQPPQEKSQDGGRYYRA
T1 sequence (P02466 86-1125, chain 2 of 2): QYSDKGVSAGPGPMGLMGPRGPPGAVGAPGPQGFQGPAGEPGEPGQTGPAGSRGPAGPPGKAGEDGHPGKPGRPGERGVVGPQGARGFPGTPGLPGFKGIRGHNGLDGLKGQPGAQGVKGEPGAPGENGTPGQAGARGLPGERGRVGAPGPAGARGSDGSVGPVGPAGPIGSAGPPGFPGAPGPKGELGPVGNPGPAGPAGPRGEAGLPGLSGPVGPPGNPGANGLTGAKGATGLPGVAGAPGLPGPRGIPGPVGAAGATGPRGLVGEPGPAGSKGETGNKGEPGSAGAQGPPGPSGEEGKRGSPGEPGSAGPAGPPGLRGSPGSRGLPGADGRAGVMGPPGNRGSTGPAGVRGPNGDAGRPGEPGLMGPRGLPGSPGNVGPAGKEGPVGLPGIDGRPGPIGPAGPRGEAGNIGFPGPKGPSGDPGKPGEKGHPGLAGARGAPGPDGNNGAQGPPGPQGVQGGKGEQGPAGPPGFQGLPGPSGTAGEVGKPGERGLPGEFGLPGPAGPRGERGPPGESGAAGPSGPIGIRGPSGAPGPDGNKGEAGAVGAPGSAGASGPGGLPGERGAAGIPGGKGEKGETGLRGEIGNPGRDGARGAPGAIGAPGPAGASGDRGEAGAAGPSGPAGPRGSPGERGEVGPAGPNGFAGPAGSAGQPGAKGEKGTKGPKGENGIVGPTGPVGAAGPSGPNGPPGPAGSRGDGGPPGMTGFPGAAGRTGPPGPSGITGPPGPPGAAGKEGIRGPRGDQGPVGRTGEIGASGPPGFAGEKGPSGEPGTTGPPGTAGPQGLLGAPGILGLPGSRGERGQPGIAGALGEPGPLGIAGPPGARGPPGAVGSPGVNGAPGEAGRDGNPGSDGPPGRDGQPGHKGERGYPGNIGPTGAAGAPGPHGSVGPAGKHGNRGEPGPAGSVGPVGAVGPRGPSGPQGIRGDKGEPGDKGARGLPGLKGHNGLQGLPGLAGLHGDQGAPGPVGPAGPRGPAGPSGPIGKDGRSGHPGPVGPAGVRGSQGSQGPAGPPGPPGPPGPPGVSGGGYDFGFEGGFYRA

- Kd [1]: 180 nM
- Kd [2]: 1.44 nM
B1: TKKTLRT–SIRPαFc conjugate (Fc fusion)
chain 1: EEELQVIQPDKSVLVAAGETATLRCTATSLIPVGPIQWFRGAGPGRELIYNQKEGHFPRVTTVSDLTKRNNMDFSIRIGNITPADAGTYYCVKFRKGSPDDVEFKSG
chain 2: TKKTLRTC
modifications: free amino groups joined through Sulfo-SMCC to the cysteine of the peptide TKKTLRTC; one or two peptides on one SIRPαFc (MALDI-TOF-MS); sites not told | sulfhydryl of the C-terminal cysteine joined to the maleimide group of Sulfo-SMCC

- Kd [2]: 3.3 nM
B2: human SIRPαFc fusion protein (Fc fusion)
chain: B1 chain 1
